The record followed here is publication PMC10321058.

This data set concerns the target SARS-CoV-2 spike RBD protein (SARS-CoV-2, UniProt P0DTC2 319-541). Put plainly: electrochemical aptasensor.

B1: thiolated SARS-CoV-2 RBD aptamer (Song et al. 2020) (ssDNA)
DNA: TTTTTCCAGCCACCGACCTTGTGCTTTGGGAGTGCTGGTCCAAGGGCGTTAAGGACA
modifications: 5'-thiol, TCEP reduced, immobilized on SPCE/HA-LSCF
Consider B1, for which the binding result is recorded as “binds”.
